The values that follow come from patent publication US20210292393A1 (published 2021).

The target of experiment [1] is T1, SARS-CoV-2 full length spike protein (wild type) (SARS-CoV-2, UniProt P0DTC2 14-1273).
T1 construct: also called SARS-CoV-2 spike; S protein
Description: flow cytometry, CHO cells expressing full-length wild-type SARS-CoV-2 spike.

The target in experiment [2] is T2, SARS-CoV-2 full length spike protein, wild type, expressed on the surface of transiently transfected CHO cells (SARS-CoV-2, UniProt P0DTC2 14-1273).
T2 construct: also called SARS-CoV-2 spike (S) protein; Wild-Type SARS-CoV-2
Description: flow cytometry, CHO cells expressing full-length WT spike. Background: A flow cytometer gives signals particle by particle.

Experiment [3] deals with T3, SARS-CoV-2 full length spike protein (wild-type), conjugated to optically encoded beads (SARS-CoV-2, UniProt P0DTC2 14-1208).
T3 construct: also called SARS-CoV-2 spike (S) protein; full-length trimeric SARS-CoV-2 spike protein
Description: multiplexed bead flow cytometry, column D.

Experiment [4] concerns the target T4, SARS-CoV-2 full length spike protein (wild type), expressed on the surface of transiently transfected CHO … (SARS-CoV-2, UniProt P0DTC2 14-1273).
T4 construct: also called SARS-CoV-2 spike (S) protein; Wild-Type SARS-CoV-2
Description: flow cytometry, CHO cells with full-length WT SARS-CoV-2 spike.

For experiment [5], the target named is T5, SARS-CoV-2 spike (S) protein, full length, wild type (SARS-CoV-2, UniProt P0DTC2 14-1208).
T5 construct: also called SARS-CoV-2 full length spike; full-length trimeric SARS-CoV-2 spike protein
As to the kind of experiment: multiplexed bead assay, flow cytometry.

The target in experiment [6] is T1, SARS-CoV-2 full length spike protein ….
Experiment [7] deals with T6, SARS-CoV-2 full length spike protein (wild type) (SARS-CoV-2, UniProt P0DTC2 14-1208).
T6 construct: also called SARS-CoV-2 spike; S protein
As to the kind of experiment: multiplexed bead assay, flow cytometry; columns A, B, D, G, H, I.

Experiment [8] concerns the target SARS-CoV-2 spike protein on infectious SARS-CoV-2 virus, Italy-INMI1 isolate (SARS-CoV-2, UniProt P0DTC2 14-1273). Description: cell-based or functional assay.
The target in experiment [9] is 2019 nCoV Spike Protein (RBD, His tag) (SARS-CoV-2, UniProt P0DTC2 329-520). Description: HT-SPR (Carterra LSA), mAb on chip, RBD (His tag) in solution, 25 C.
In experiment [10] the target is T7, SARS-CoV-2 spike protein (nCoV-S Spike Protein Trimer, NIH) (SARS-CoV-2, UniProt P0DTC2 14-1208).
T7 construct: also called S protein
Description: HT-SPR (Carterra LSA), mAb on chip, SARS-CoV-2 spike protein titrated, 25 C.

Experiment [11] addresses T7, SARS-CoV-2 spike protein (nCoV-S Spike …). As to the kind of experiment: HT-SPR (Carterra LSA), mAb on chip, SARS-CoV-2 spike protein titrated, 37 C.
Experiment [12] addresses NCP-CoV (2019-nCoV) Spike Protein (S1 Subunit, His Tag) (SARS-CoV-2, UniProt P0DTC2 16-685). As to the kind of experiment: HT-SPR (Carterra LSA), mAb on chip, S1 subunit (His tag) in solution, 25 C.
Experiment [13] has as its target T4, SARS-CoV-2 full length spike protein ….

B1: antibody 290 (antibody, V domains shown)
VH: QVHLVQSGAEVKKPGASVKVSCAASGYTFNNYGVSWVRQAPGQGLEWMGWISASNGNTKYAQNLQGRVTMTTDTSTSTAYMELRSLRSDDTAVYYCARDLVGPTAPNYYYGMDVWGQGTAVTVSS
VL: QSVLTQPPSVSGAPGQRVTISCTGSSSSIGAGYDVHWYQQLPGTAPKLLIYANSNRPSGVPDRLSGSKSGTSASLAITGLQAEDEADYYCQSYDSSLSGYVFGTGTKVTVL
On to B1, for which the binding result in [1] was “no binding”.

B2: antibody 432 (antibody, V domains shown)
VH: QVQLQESGPGLVKPSQTLSLTCTVSGGSISSGGYYWNWIRQHPGKGLEWIGYIYDSGSTYYNPSLKSRLTLSIDTSQNQFSLRRTSVTAADTAVYYCARGRQYDYDRTGLQYYFDYWGQGTLVTVSS
VL: EIVLTQSPGTLSLSPGERATLSCRASQSFSSSYLAWYQQKPGQAPRLLIYGASSRATGIPDRFSGSGSGTDFTLTISRLEPEDFAVYYCQQYGTSSLTFGGGTKVEIK
On to B2, for which, in experiment [2], the binding result is on record as “no binding”.

B3: antibody 514 (antibody, V domains shown)
VH: EVQLVQSGAEVKKPGATVKISCKVSGYTFTDYYMHWVQQAPGKGLEWMGLVDPEDGETIYAEKFQGRVTITADTSTDTAYMELSSLRSEDTAVYYCATDCKYDILTGHYSAGYYYYGMDVWGQGTTVTVSS
VL: DIQMTQSPSSLSASVGDRVTITCRASQGISNYLAWFQQKPGKAPKSLIYAASSLQSGVPSKFSGSGSGTDFTLTISSLQPEDFATYYCQQYNSYPFTFGGGTKVEIK
B3: the binding result in [3] was “no binding”.

B4: antibody 541 (antibody, V domains shown)
VH: QVQLVQSGAEVKKPGASVKVSCKASGYTFTSYYVHWVRQAPGQSLEWMGVISPSTGSTTYAQNFQGRVTMTRDTSTTTVYMELSSLRSEDTAVYYCARDDYYDSTRYFDLWGRGTLVTVSS
VL: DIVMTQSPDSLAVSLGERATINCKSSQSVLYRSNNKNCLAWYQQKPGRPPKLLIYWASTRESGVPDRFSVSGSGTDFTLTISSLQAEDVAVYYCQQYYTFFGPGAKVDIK
As to B4, the binding result in experiment [3] is given as “no binding”.

B5: antibody 434 (antibody, V domains shown)
VH: QVQLVQSGAEVKKPGASVQVSCKASGYTFSDYYIFWVRQAPGQGLEWMGCINPKSGGAIYAQRFQGRVTMTRDTSFNTAYMEMNRLGSDDTAVYYCVTRGPPDIAASGFAWHLDVWGQGTTVTVSS
VL: DIVMTQSPLSLPVTPGEPASISCRSSQSLLSSNGYNYLEWYLQKPGQSPQLLMYLGSNRASGVPDRFSGSGSGTDFTLKINRVEAEDVGVYYCMQALQTPLTFGGGTKVEIK
For B5, the binding result in experiment [4] is “no binding”.

B6: antibody 474 (antibody, V domains shown)
VH: EVQLVESGGGLVQPGGSLRLSCAASGFTFSSYWMHWVRQAPGKGLVWVSRINSDGSSTSYADSVKGRFTISRDNAKNTLYRQMNSLRAEDTAVYYCALGPLDIVGSYYYYGMDVWGQGTTVTVSS
VL: NFMLTQPHSVSESPGKTVTISCTGSSGSIASNYVQWYQQRPGSAPTTVIYEDNQRPSGVPDRFSGSIDSSSNSASLTISGLKTEDEADYYCQSYDSSNQDVVFGGGTKLTVL
As to B6, the binding result in [4] was “no binding”.

B7: anti-SARS-CoV-2 antibody 474 (antibody, V domains shown)
VH: EVQLVESGGGLVQPGGSLRLSCAASGFTFSSYWMHWVRQAPGKGLVWVSRINSDGSSTSYADSVKGRFTISRDNAKNTLYRQMNSLRAEDTAVYYCALGPLDIVGSYYYYGMDVWGQGTTVTVSS
VL: NFMLTQPHSVSESPGKTVTISCTGSSGSIASNYVQWYQQRPGSAPTTVIYEDNQRPSGVPDRFSGSIDSSSNSASLTISGLKTEDEADYYCQSYDSSNQDVVFGGGTKLTVL
With B7, in [5], the binding result is on record as “no binding”.

B8: antibody 296 (antibody, V domains shown)
VH: EVQLVESGGGLVQPGGSLRLSCAGSGFTLSNYWMTWVRQAPGKGLEWVANINQDASRKYYGDSVKGRFSVSRDNAKNSLYLQMNSLTAEDTGFYYCVREELPSTPGSTWGQGTLVTVSS
VL: QSALTQPASVSGSPGQSITISCTGTSSDIGGYNHVSWYQQHPGKAPKLMIYGVSNRPSGVSDRFSGSKSDNTASLTISGLQAEDEADYYCSSPTSRGNKVFGTGTKVTVL
Take B8: the “median fluorescence intensity, fold over isotype control” value in [6] came to 1.12 fold over isotype. The binding result in experiment [1] is given as “no binding”.

B9: antibody 510 (antibody, V domains shown)
VH: QVQLQESGPGLVKPSQTLSLTCTVSGGSISSGSYYWSWIRQPAGKGLEWIGRIYTSGSTNYNPSLKSRVTISVDTSKNQFSLKLSSVTAADTAVYYCAREGQWLYRFDYWGQGTLVTVSS
VL: QSALTQPASVSGSPGQSITISCTGTSSDVGNYDLVSWYQQHPGKAPKLVIYGVTKRPSGVSNRFSGSKSGNTASLTISGLQAEDEADYYCCSYATGDTSVFGTGTKVTVL
For the molecule B9, in [3], the binding result was “no binding”.

B10: antibody 341 (antibody, V domains shown)
VH: QLQLQESGPGLVKPSETLSLTCTVSGGSISSSSYYWGWIRQPPGKGLEWIGSIYYSGSTYYNPSLKSRVTISVDTSKNQFSLKLSSVTAADTAVYYCARRPLRYFDWLTNFDYWGQGTLVTVSS
VL: EIVLTQSPATLSLSPGERATLSCRASQSVSSYLAWYQQKPGQAPRLLIYDASNRATGIPARFSGSGSGTDFTLTISSLEPEDFAVYYCQQRSNWPITFGQGTRLEIK
In the case of B10, the binding result in experiment [7] is “no binding”.

B11: antibody 443 (antibody, V domains shown)
VH: QMRLEESGPGLVKPSETLSLTCTVAGGSITSSDYFWGWLRQSPGKGLEWIASTYHGGSIQYHPALKSRVTISVDASKNQISLRLSSVTAADTAVYYCARDRGDDGPMGTYYFDHWGQGALVTVSS
VL: QSVLTQPPSVSGAPGQSVTISCAGSSSNIGAGHDVHWYQQIPGTAPKLLICGNTNRPSGVPERFSGSRSGTSASLAITGLQAEDEAVYYCQSYDPSHVFFGTGTKLTVL
For the molecule B11, the binding result in [4] was “no binding”.

B12: mAb 555 (antibody, V domains shown)
VH: QVQLVQSGAEVKKPGSSVKVSCKASGGTFSNYAISWVRQAPGQGLEWMGRIIPILGIANYAQKFQGRVTITADKSTSTAYMELSSLRSEDTAVYYCARGYYEARHYYYYYAMDVWGQGTAVTVSS
VL: not shown
On to B12, for which, in experiment [8], the “IC50, live virus neutralization of Italy-INMI1 isolate; Lab 2, plaque reduction” value is 0.05 µg/mL.

B13: antibody 506 (antibody, V domains shown)
VH: QITLKESGPTLVKPTQTLTLTCTFSGFSLSTSGVGVGWIRQPPGKALEWLALIYWDDDKRYSPSLKSRLTITKDTSKNQVVLTMTNMDPVDTATYYCAHHSLSSIFDYWGQGTLVTVSS
VL: QSALTQPASVSGSPGQSITISCTGTSSDVGDYNYVSWYQQHPGKAPKLMIYEVSNRPSGVSNRFSGSKSGNTASLTISGLQAEDEADYYCSSYTSSSTVFGGGTKLTVLG
By Kd is commonly meant a measure of binding affinity in units of concentration. A higher Kd goes with a looser complex. Take B13: the Kd in [9] was determined as 14.7 nM; in experiment [10] it was 0.0491 nM; in experiment [11] it was 0.0693 nM; in experiment [12], 90.9 nM.

B14: antibody 450 (antibody, V domains shown)
VH: EVQLVESGGGLVQPGGSLRLSCAASEFTFSSYWMSWVRQAPGKGLEWVANIKQDGSEKYYVDSVKGRFTISRDNAKNSLYLQMNSLRAEDTAVYYCARVGEYSGYDLFFDYWGQGTLVTVSS
VL: NFMLTQPHSVSESPGKTVTISYTGSSGSIASNYVQWYQQRPGSAPTTVIYEDNQRPSGVPDRFSGSIDSSSNSASLTISGLKTEDEADYYCQSYDSSNQGVFGGGTKLTVL
As to B14, the binding result in [4] was “no binding”. In addition, the “median fluorescence intensity, fold over isotype control” value in experiment [13] came to 0.85 fold over isotype.
